Here are results for 40 variants from the Human Domainome abundance scans (Beltran et al. 2025).

B1: Lysine-specific demethylase 2B, residues 656 to 722; numbered along this chain, Q8NHM5 (parent)
chain: LPHTAVCLVCGEAGKEDTVEEEEGKFNLMLMECSICNEIIHPGCLKIKESEGVVNDELPNCWECPKC

± gives the uncertainty stated by the source.

In this series the parent is B1. The experiment in a line: abundance fitness (aPCA) (normalised: wild type 0, dead -1); higher = more abundant; growth selection in yeast, the domain comes from the species named. The note with it: Homo sapiens.
Take LPHTAVCLVCGEAGKEDTVEEEEGKFNLMLMECSICNEIIHPGCLKIKESETVVNDELPNCWECPKC [G52T]: the abundance fitness was -0.122 ± 0.1.

As for LPHTAVCLVCGEAGKEDTVEEEEGKFNLMLMECSICNEIIHPGCLKIKESEQVVNDELPNCWECPKC [G52Q], the abundance fitness was -0.094 ± 0.1.

For LPHTAVCLVCGEAGKEDTVEEEEGKFNLMLMECSICNEIIHPGCLKIKESEFVVNDELPNCWECPKC [G52F], the abundance fitness is -0.028 ± 0.11.

Consider LPHTAVCLVCGEAGKEDTVEEEEGKFNLMLMECSICNEIIHPGCLKIKESENVVNDELPNCWECPKC [G52N], for which the abundance fitness was -0.09 ± 0.32.

For the variant LPHTAVCLVCGEAGKEDTVEEEEGKFNLMLMECSICNEIIHPGCLKIKESEKVVNDELPNCWECPKC [G52K], the abundance fitness was -0.164 ± 0.093.

In the case of LPHTAVCLVCGEAGKEDTVEEEEGKFNLMLMECSICNEIIHPGCLKIKESEAVVNDELPNCWECPKC [G52A], the abundance fitness is 0.224 ± 0.11.

Take LPHTAVCLVCGEAGKEDTVEEEEGKFNLMLMECSICNEIIHPGCLKIKESEIVVNDELPNCWECPKC [G52I]: the abundance fitness is -0.525 ± 0.24.

LPHTAVCLVCGEAGKEDTVEEEEGKFNLMLMECSICNEIIHPGCLKIKESERVVNDELPNCWECPKC [G52R]: the abundance fitness stood at 0.067 ± 0.069.

As to LPHTAVCLVCGEAGKEDTVEEEEGKFNLMLMECSICNEIIHPGCLKIKESECVVNDELPNCWECPKC [G52C], the abundance fitness is -0.051 ± 0.2.

For the variant LPHTAVCLVCGEAGKEDTVEEEEGKFNLMLMECSICNEIIHPGCLKIKESEEVVNDELPNCWECPKC [G52E], the abundance fitness was -0.016 ± 0.12.

Take LPHTAVCLVCGEAGKEDTVEEEEGKFNLMLMECSICNEIIHPGCLKIKESEVVVNDELPNCWECPKC [G52V]: the abundance fitness stood at 0.018 ± 0.095.

With LPHTAVCLVCGEAGKEDTVEEEEGKFNLMLMECSICNEIIHPGCLKIKESEHVVNDELPNCWECPKC [G52H], the abundance fitness is -0.086 ± 0.12.

As to LPHTAVCLVCGEAGKEDTVEEEEGKFNLMLMECSICNEIIHPGCLKIKESEPVVNDELPNCWECPKC [G52P], the abundance fitness was 0.171 ± 0.1.

As for LPHTAVCLVCGEAGKEDTVEEEEGKFNLMLMECSICNEIIHPGCLKIKESEWVVNDELPNCWECPKC [G52W], the abundance fitness was -0.365 ± 0.2.

Take LPHTAVCLVCGEAGKEDTVEEEEGKFNLMLMECSICNEIIHPGCLKIKESEDVVNDELPNCWECPKC [G52D]: the abundance fitness was -0.121 ± 0.097.

With LPHTAVCLVCGEAGKEDTVEEEEGKFNLMLMECSICNEIIHPGCLKIKESELVVNDELPNCWECPKC [G52L], the abundance fitness is -0.142 ± 0.066.

Consider LPHTAVCLVCGEAGKEDTVEEEEGKFNLMLMECSICNEIIHPGCLKIKESESVVNDELPNCWECPKC [G52S], for which the abundance fitness is -0.146 ± 0.12.

As for LPHTAVCLVCGEAGKEDTVEEEEGKFNLMLMECSICNEIIHPGCLKIKESEGVVPDELPNCWECPKC [N55P], the abundance fitness was -0.227 ± 0.17.

Regarding LPHTAVCLVCGEAGKEDTVEEEEGKFNLMLMECSICNEIIHPGCLKIKESEGVVCDELPNCWECPKC [N55C], the abundance fitness is -0.202 ± 0.37.

On to LPHTAVCLVCGEAGKEDTVEEEEGKFNLMLMECSICNEIIHPGCLKIKESEGVVKDELPNCWECPKC [N55K], for which the abundance fitness was -0.591 ± 0.34.

On to LPHTAVCLVCGEAGKEDTVEEEEGKFNLMLMECSICNEIIHPGCLKIKESEGVVLDELPNCWECPKC [N55L], for which the abundance fitness is -0.188 ± 0.085.

In the case of LPHTAVCLVCGEAGKEDTVEEEEGKFNLMLMECSICNEIIHPGCLKIKESEGVVEDELPNCWECPKC [N55E], the abundance fitness is -0.165 ± 0.13.

With LPHTAVCLVCGEAGKEDTVEEEEGKFNLMLMECSICNEIIHPGCLKIKESEGVVHDELPNCWECPKC [N55H], the abundance fitness was 0.049 ± 0.22.

Turning to LPHTAVCLVCGEAGKEDTVEEEEGKFNLMLMECSICNEIIHPGCLKIKESEGVVADELPNCWECPKC [N55A], the abundance fitness is -0.089 ± 0.13.

Consider LPHTAVCLVCGEAGKEDTVEEEEGKFNLMLMECSICNEIIHPGCLKIKESEGVVTDELPNCWECPKC [N55T], for which the abundance fitness was -0.101 ± 0.12.

As for LPHTAVCLVCGEAGKEDTVEEEEGKFNLMLMECSICNEIIHPGCLKIKESEGVVYDELPNCWECPKC [N55Y], the abundance fitness was -0.386 ± 0.44.

In the case of LPHTAVCLVCGEAGKEDTVEEEEGKFNLMLMECSICNEIIHPGCLKIKESEGVVDDELPNCWECPKC [N55D], the abundance fitness was -0.031 ± 0.35.

As for LPHTAVCLVCGEAGKEDTVEEEEGKFNLMLMECSICNEIIHPGCLKIKESEGVVWDELPNCWECPKC [N55W], the abundance fitness is -0.389 ± 0.19.

Regarding LPHTAVCLVCGEAGKEDTVEEEEGKFNLMLMECSICNEIIHPGCLKIKESEGVVSDELPNCWECPKC [N55S], the abundance fitness came out at 0.087 ± 0.1.

Take LPHTAVCLVCGEAGKEDTVEEEEGKFNLMLMECSICNEIIHPGCLKIKESEGVVRDELPNCWECPKC [N55R]: the abundance fitness is -0.015 ± 0.09.

Regarding LPHTAVCLVCGEAGKEDTVEEEEGKFNLMLMECSICNEIIHPGCLKIKESEGVVQDELPNCWECPKC [N55Q], the abundance fitness was -0.189 ± 0.22.

For LPHTAVCLVCGEAGKEDTVEEEEGKFNLMLMECSICNEIIHPGCLKIKESEGVVGDELPNCWECPKC [N55G], the abundance fitness is -0.022 ± 0.11.

Regarding LPHTAVCLVCGEAGKEDTVEEEEGKFNLMLMECSICNEIIHPGCLKIKESEGVVMDELPNCWECPKC [N55M], the abundance fitness was -0.203 ± 0.17.

Regarding LPHTAVCLVCGEAGKEDTVEEEEGKFNLMLMECSICNEIIHPGCLKIKESEGVVVDELPNCWECPKC [N55V], the abundance fitness is -0.236 ± 0.1.

For LPHTAVCLVCGEAGKEDTVEEEEGKFNLMLMECSICNEIIHPGCLKIKESEGVVNPELPNCWECPKC [D56P], the abundance fitness was determined as 0.099 ± 0.1.

With LPHTAVCLVCGEAGKEDTVEEEEGKFNLMLMECSICNEIIHPGCLKIKESEGVVNFELPNCWECPKC [D56F], the abundance fitness came to 0.023 ± 0.23.

In the case of LPHTAVCLVCGEAGKEDTVEEEEGKFNLMLMECSICNEIIHPGCLKIKESEGVVNHELPNCWECPKC [D56H], the abundance fitness was found to be 0.692 ± 0.48.

On to LPHTAVCLVCGEAGKEDTVEEEEGKFNLMLMECSICNEIIHPGCLKIKESEGVVNIELPNCWECPKC [D56I], for which the abundance fitness was -0.685 ± 0.46.

As to LPHTAVCLVCGEAGKEDTVEEEEGKFNLMLMECSICNEIIHPGCLKIKESEGVVNKELPNCWECPKC [D56K], the abundance fitness stood at 0.179 ± 0.13.

Regarding LPHTAVCLVCGEAGKEDTVEEEEGKFNLMLMECSICNEIIHPGCLKIKESEGVVNLELPNCWECPKC [D56L], the abundance fitness was -0.114 ± 0.085.
